# Laboratory results from US20240400693A1 (Chugai, published 2024).
# Positions count from the first letter of the chain named. Where two headings read alike, the source gives them in different places.
# T1: HLA-DQ5.1 on Ba/F3 cells (human, limits assumed)
# T1 construct: whole, on cells; also called Ba/F3-HLA-DQ5.1
# T1 MHC II alpha: not shown
# T1 MHC II beta: not shown
# T2: HLA-DQ6.3 on Ba/F3 cells (human, UniProt P01920 33-230, limits assumed)
# T2 construct: whole, on cells; also called Ba/F3-HLA-DQ6.3
# T2 MHC II alpha: not shown
# T2 MHC II beta: not shown
# T3: HLA-DR on Ba/F3 cells (human, UniProt P01903 26-216; P79483 30-227, limits assumed)
# T3 construct: whole, on cells; also called Ba/F3-HLA-DR
# T3 MHC II alpha: not shown
# T3 MHC II beta: not shown
# T4: HLA-DQ2.2 on Ba/F3 cells (human, UniProt P01909 24-216, limits assumed)
# T4 construct: whole, on cells; also called Ba/F3-HLA-DQ2.2
# T4 MHC II alpha: not shown
# T4 MHC II beta: not shown
# T5: HLA-DQ8 on Ba/F3 cells (human, UniProt P01909 24-216; P01920 33-230, limits assumed)
# T5 construct: whole, on cells; also called Ba/F3-HLA-DQ8
# T5 MHC II alpha: not shown
# T5 MHC II beta: not shown
# T6: HLA-DQ7.3 on Ba/F3 cells (human, UniProt P01909 24-216; P01920 33-230, limits assumed)
# T6 construct: whole, on cells; also called Ba/F3-HLA-DQ7.3
# T6 MHC II alpha: not shown
# T6 MHC II beta: not shown
# B1: DQN0344H1013/L0620//DQN0385H1270/L0722-F6 (bispecific antibody)
# heavy 1: QVQLVESGGGVVQPGRSLRLSCAASGFTFSSAYWMVWVRQAPGQGLEWMGAVYGGSDTTYYAKWTEGRFTISRDTSKNTLYLQMNSLRAEDTAVYYCAREPLNYYYYGELNVWGQGTLVTVSSASTKGPSVFPLAPSSKSTSGGTAALGCLVKDYFPEPVTVSWNSGALTSGVHTFPAVLKSSGLYSLSSVVTVPSSSLGTQTYICNVNHKPSNTKVDKRVEPKSCDKTHTCPPCPAPELRRGPSVFLFPPKPKDTLMISRTPEVTCVVVDVSHEDPEVKFNWYVDGVEVHNAKTKPREEQYNSTYRVVSVLTVLHQDWLNGKEYKCKVSNKALPAPIEKTISKAKGQPREPQVYTLPPSREEMTKNQVSLTCLVKGFYPSDIAVEWESNGQPENNYKTTPPYLDSDGSFFLYSKLTVDKSRWQEGNVFSCSVLHEALHAHYTREELSLSP
# light 1: DIQMTQSPSSLSASVGDRVTITCQATENIYSGLAWYQQKPGKAPKLLIYYVSTLAYGIPARFSGSGSGTDFTLTISSLEPEDFAVYYCQTYEDVSAVTFGQGTKVEIKRTVAAPSVFIFPPSDEQLKSGTAEVVCLLNNFYPREAKVQWKVDNALQSGNSEESVTEQDSKDSTYSLSSTLTLSKADYEKHKVYACEVTHQGLSSPVTKSFNRGEC
# heavy 2: QVQLVESGGGVVQPGRSLRLSCAASGFTFSEWYFMSWVRQAPGKGLEWVASIDTGSGSIDYAEWVEGRFTISRDNSKNTLYLQMNSLRAEDTAVYYCARDIGIDYNFWGPGTLVTVSSASTKGPSVFPLAPSSKSTSGGTAALGCLVEDYFPEPVTVSWNSGALTSGVHTFPAVLESSGLYSLSSVVTVPSSSLGTKTYICNVNHKPSNTKVDKRVEPKSCDKTHTCPPCPAPELRRGPSVFLFPPKPKDTLMISRTPEVTCVVVDVSHEDPEVKFNWYVDGVEVHNAKTKPREEQYNSTYRVVSVLTVLHQDWLNGKEYKCKVSNKALPAPIEKTISKAKGQPREPQVYTLPPSRKEMTKNQVSLTCLVKGFYPSDIAVEWESNGQPENNYKTTPPYLDSDGSFFLYSKLTVDKSRWQQGNVFSCSVLHEALHAHYTRKELSLSP
# light 2: DIQMTQSPSSLSASVGDRVTITCQTTQSISSYLNWYQQKPGQPPKLLIYYASTKAEGIPARFSGSGLGTDFTLTISSLQPEDFAVYYCHYGISKVSFGQGTKVEIKRTVAAPSVFIFPPSDEQLKSGTAKVVCLLNNFYPREAKVQWKVDNALQSGNSKESVTEQDSKDSTYSLSSTLTLSKADYEKHKVYACEVTHQGLSSPVTKSFNRGEC
# B2: DQN0344H1013/L0620//DQN0385H1521/L0605-F6.v2 (bispecific antibody)
# heavy 1: B1 heavy 1 with Y403V
# light 1: B1 light 1
# heavy 2: B1 heavy 2 with S30E, E31S, Y398V
# light 2: B1 light 2 with L67S, Q79E
# B3: DQN0344H1013/L0620//DQN0385H1270/L0681-F6.v2 (bispecific antibody)
# heavy 1: B1 heavy 1 with Y403V
# light 1: B1 light 1
# heavy 2: B1 heavy 2 with Y398V
# light 2: B1 light 2 with Q79E
# Assays:
# [1] = molecular target: T7, HLA-DQ2.5 on IHW09023 cells loaded with 33mer gliadin peptide (human; wheat); experiment: cell-based or functional assay
# [2] = molecular target: T8, HLA-DQ2.5 on IHW09023 cells loaded with omega1/2 gliadin peptide (human; wheat); experiment: cell-based or functional assay
# [3] = molecular target: T9, HLA-DQ2.5 on IHW09023 cells loaded with BC hordein peptide (human; barley); experiment: cell-based or functional assay
# [4] = molecular target: T10, HLA-DQ2.5 on IHW09023 cells loaded with gamma 1 gliadin peptide (human; wheat); experiment: cell-based or functional assay
# [5] = molecular target: T11, HLA-DQ2.5 on IHW09023 cells loaded with gamma 2 gliadin peptide (human; wheat); experiment: cell-based or functional assay
# [6] = molecular target: T12, HLA-DQ2.5 on IHW09023 cells loaded with gamma 3 gliadin peptide (human; wheat); experiment: cell-based or functional assay
# [7] = molecular target: T13, HLA-DQ2.5 on IHW09023 cells loaded with gamma 4a gliadin peptide (human; wheat); experiment: cell-based or functional assay
# [8] = molecular target: T14, HLA-DQ2.5 on IHW09023 cells loaded with gamma 4d gliadin peptide (human; wheat); experiment: cell-based or functional assay
# HLA-DQ5.1 on Ba/F3 cells = molecular target: T1, HLA-DQ5.1 on Ba/F3 cells; experiment: FACS, Ba/F3 cells; raw MFI
# HLA-DQ6.3 on Ba/F3 cells = molecular target: T2, HLA-DQ6.3 on Ba/F3 cells; experiment: FACS, Ba/F3 cells; raw MFI
# HLA-DR on Ba/F3 cells = molecular target: T3, HLA-DR on Ba/F3 cells; experiment: FACS, Ba/F3 cells; raw MFI
# HLA-DP on Ba/F3 cells = molecular target: T15, HLA-DP on Ba/F3 cells (human, UniProt P20036 29-222; P04440 30-225, limits assumed); experiment: FACS, Ba/F3 cells; raw MFI
# T15 construct: whole, on cells; also called Ba/F3-HLA-DP
# T15 sequence (P20036 29-222 limits assumed, chain 1 of 4, other chains not shown): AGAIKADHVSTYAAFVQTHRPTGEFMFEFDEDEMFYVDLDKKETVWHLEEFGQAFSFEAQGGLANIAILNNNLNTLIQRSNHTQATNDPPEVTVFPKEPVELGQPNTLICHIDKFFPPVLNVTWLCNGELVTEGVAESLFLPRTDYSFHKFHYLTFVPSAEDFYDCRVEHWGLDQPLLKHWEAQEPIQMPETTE
# T15 sequence (P04440 30-225 limits assumed, chain 2 of 4, other chains not shown): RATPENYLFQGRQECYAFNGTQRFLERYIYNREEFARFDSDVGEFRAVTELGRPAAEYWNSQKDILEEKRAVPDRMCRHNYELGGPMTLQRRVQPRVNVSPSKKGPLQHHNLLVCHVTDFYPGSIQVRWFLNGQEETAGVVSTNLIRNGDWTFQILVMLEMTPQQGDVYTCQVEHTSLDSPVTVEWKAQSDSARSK
# HLA-DQ2.5 on Ba/F3 cells = molecular target: T16, HLA-DQ2.5 on Ba/F3 cells (human, UniProt P01909 24-216, limits assumed); experiment: FACS, Ba/F3 cells; %MFI: IC17dK 0, DQN0139bb 100
# T16 construct: whole, on cells; MHC class II without fused peptide; also called Ba/F3-HLA-DQ2.5
# HLA-DQ2.2 on Ba/F3 cells = molecular target: T4, HLA-DQ2.2 on Ba/F3 cells; experiment: FACS, Ba/F3 cells; %MFI: IC17dK 0, DQN0139bb 100
# HLA-DQ7.5 on Ba/F3 cells = molecular target: T17, HLA-DQ7.5 on Ba/F3 cells (human, UniProt P01909 24-216; P01920 33-230, limits assumed); experiment: FACS, Ba/F3 cells; %MFI: IC17dK 0, DQN0139bb 100
# T17 construct: whole, on cells; also called Ba/F3-HLA-DQ7.5
# HLA-DQ8 on Ba/F3 cells = molecular target: T5, HLA-DQ8 on Ba/F3 cells; experiment: FACS, Ba/F3 cells; %MFI: IC17dK 0, DQN0139bb 100
# HLA-DQ7.3 on Ba/F3 cells = molecular target: T6, HLA-DQ7.3 on Ba/F3 cells; experiment: FACS, Ba/F3 cells; %MFI: IC17dK 0, DQN0139bb 100
# [9] = molecular target: T7, HLA-DQ2.5 on IHW09023 cells loaded with …; experiment: cell-based or functional assay; remark: listed apart in the source
# [10] = molecular target: T8, HLA-DQ2.5 on IHW09023 cells loaded with …; experiment: cell-based or functional assay; remark: listed apart in the source
# [11] = molecular target: T9, HLA-DQ2.5 on IHW09023 cells loaded with …; experiment: cell-based or functional assay; remark: listed apart in the source
# [12] = molecular target: T10, HLA-DQ2.5 on IHW09023 cells loaded with …; experiment: cell-based or functional assay; remark: listed apart in the source
# [13] = molecular target: T11, HLA-DQ2.5 on IHW09023 cells loaded with …; experiment: cell-based or functional assay; remark: listed apart in the source
# [14] = molecular target: T12, HLA-DQ2.5 on IHW09023 cells loaded with …; experiment: cell-based or functional assay; remark: listed apart in the source
# [15] = molecular target: T13, HLA-DQ2.5 on IHW09023 cells loaded with …; experiment: cell-based or functional assay; remark: listed apart in the source
# [16] = molecular target: T14, HLA-DQ2.5 on IHW09023 cells loaded with …; experiment: cell-based or functional assay; remark: listed apart in the source
# [17] = molecular target: HLA-DQ2.2 on HBBB2.2 cells loaded with 33mer gliadin peptide (human; wheat); experiment: cell-based or functional assay
Binder,"IC50 (ng/mL), α1a gliadin TCR, 250 nM 33mer gliadin [9] [ng/mL]","IC50 (ng/mL), α1b gliadin TCR, 250 nM 33mer gliadin [9] [ng/mL]","IC50 (ng/mL), α2 gliadin TCR, 250 nM 33mer gliadin [9] [ng/mL]","IC50 (ng/mL), ω1 gliadin TCR, 25 µM ω1/2 gliadin [10] [ng/mL]","IC50 (ng/mL), ω2 gliadin TCR, 250 nM ω1/2 gliadin [10] [ng/mL]","IC50 (ng/mL), BC hordein TCR, 250 nM BC hordein [11] [ng/mL]","IC50 (ng/mL), γ1 gliadin TCR, 250 nM γ1 gliadin [12] [ng/mL]","IC50 (ng/mL), γ2 gliadin TCR, 250 nM γ2 gliadin [13] [ng/mL]","IC50 (ng/mL), γ3 gliadin TCR, 100 µM γ3 gliadin [14] [ng/mL]","IC50 (ng/mL), γ4a gliadin TCR, 25 µM γ4a gliadin [15] [ng/mL]","IC50 (ng/mL), γ4d gliadin TCR, 100 µM γ4d gliadin [16] [ng/mL]","IC50 (ng/ml)_HLA-DQ2.2, α1a gliadin TCR, 25 µM 33mer gliadin [17] [ng/mL]","IC50 (ng/ml)_HLA-DQ2.2, α2 gliadin TCR, 1 µM 33mer gliadin [17] [ng/mL]",also measured
B1,–,–,–,–,–,–,–,–,–,–,–,–,–,"IC50 (ng/mL), α1a gliadin TCR, 250 nM 33mer gliadin [1]: 0.27 ng/mL; IC50 (ng/mL), α1b gliadin TCR, 250 nM 33mer gliadin [1]: 1.25 ng/mL; IC50 (ng/mL), α2 gliadin TCR, 250 nM 33mer gliadin [1]: 0.33 ng/mL; IC50 (ng/mL), ω1 gliadin TCR, 25 µM ω1/2 gliadin [2]: 2.17 ng/mL; IC50 (ng/mL), ω2 gliadin TCR, 250 nM ω1/2 gliadin [2]: 0.22 ng/mL; IC50 (ng/mL), BC hordein TCR, 250 nM BC hordein [3]: 9.7 ng/mL; IC50 (ng/mL), γ1 gliadin TCR, 250 nM γ1 gliadin [4]: 1.03 ng/mL; IC50 (ng/mL), γ2 gliadin TCR, 250 nM γ2 gliadin [5]: 277 ng/mL; IC50 (ng/mL), γ3 gliadin TCR, 100 µM γ3 gliadin [6]: 3.31 ng/mL; IC50 (ng/mL), γ4a gliadin TCR, 25 µM γ4a gliadin [7]: 1150 ng/mL; IC50 (ng/mL), γ4d gliadin TCR, 100 µM γ4d gliadin [8]: 10.1 ng/mL; binding result (HLA-DQ5.1 on Ba/F3 cells): no binding (tested: 0.05 micro g/mL); binding result (HLA-DQ6.3 on Ba/F3 cells): no binding (tested: 0.05 micro g/mL); binding result (HLA-DR on Ba/F3 cells): no binding (tested: 0.05 micro g/mL); binding result (HLA-DP on Ba/F3 cells): no binding (tested: 0.05 micro g/mL); binding result (HLA-DQ2.5 on Ba/F3 cells): no binding (tested: 0.05 micro g/mL); binding result (HLA-DQ2.2 on Ba/F3 cells): no binding (tested: 0.05 micro g/mL); binding result (HLA-DQ7.5 on Ba/F3 cells): no binding (tested: 0.05 micro g/mL); binding result (HLA-DQ8 on Ba/F3 cells): no binding (tested: 0.05 micro g/mL); binding result (HLA-DQ7.3 on Ba/F3 cells): no binding (tested: 0.05 micro g/mL)"
B2,0.6,1.81,0.33,1.96,0.2,11.4,1.9,785,1.21,1250,9.23,1.16,6.51,–
B3,0.63,1.42,0.53,3.19,0.49,25.2,5.85,280,4.84,1980,27.8,1.62,4.6,–
